# Data as given in article PMC4219644 (Journal of molecular biology, 2014).
# T1: human RNase 1 (human, UniProt P07998 29-156)
# T1 sequence: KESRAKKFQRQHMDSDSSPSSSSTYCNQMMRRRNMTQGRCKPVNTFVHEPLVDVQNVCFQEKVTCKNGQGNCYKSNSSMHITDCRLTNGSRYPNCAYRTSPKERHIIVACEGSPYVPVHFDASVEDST
# T2: mouse RNase 1 (mouse (M. musculus), UniProt P00683 26-149)
# T2 sequence (looked up): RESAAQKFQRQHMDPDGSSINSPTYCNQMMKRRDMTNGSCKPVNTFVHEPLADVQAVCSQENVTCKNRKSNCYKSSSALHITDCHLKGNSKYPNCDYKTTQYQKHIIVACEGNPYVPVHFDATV
# T3: bovine RNase A (bovine, UniProt P61823 27-150)
# T3 sequence (looked up): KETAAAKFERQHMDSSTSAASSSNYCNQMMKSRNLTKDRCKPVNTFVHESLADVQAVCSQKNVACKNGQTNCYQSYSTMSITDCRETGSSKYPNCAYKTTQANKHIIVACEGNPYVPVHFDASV
# B1: human ribonuclease inhibitor (natural protein, human (H. sapiens))
# chain: MSLDIQSLDIQCEELSDARWAELLPLLQQCQVVRLDDCGLTEARCKDISSALRVNPALAELNLRSNELGDVGVHCVLQGLQTPSCKIQKLSLQNCCLTGAGCGVLSSTLRTLPTLQELHLSDNLLGDAGLQLLCEGLLDPQCRLEKLQLEYCSLSAASCEPLASVLRAKPDFKELTVSNNDINEAGVRVLCQGLKDSPCQLEALKLESCGVTSDNCRDLCGIVASKASLRELALGSNKLGDVGMAELCPGLLHPSSRLRTLWIWECGITAKGCGDLCRVLRAKESLKELSLAGNELGDEGARLLCETLLEPGCQLESLWVKSCSFTAACCSHFSSVLAQNRFLLELQISNNRLEDAGVRELCQGLGQPGSVLRVLWLADCDVSDSSCSSLAATLLANHSLRELDLSNNCLGDAGILQLVESVRQPGCLLEQLVLYDIYWSEEMEDRLQALEKDKPSLRVIS
# B2: mouse ribonuclease inhibitor (natural protein, mouse (M. musculus))
# chain: MSLDIQCEQLSDARWTELLPLIQQYEVVRLDDCGLTEVRCKDISSAVQANPALTELSLRTNELGDGGVGLVLQGLQNPTCKIQKLSLQNCGLTEAGCGILPGMLRSLSTLRELHLNDNPMGDAGLKLLCEGLQDPQCRLEKLQLEYCNLTATSCEPLASVLRVKADFKELVLSNNDLHEPGVRILCQGLKDSACQLESLKLENCGITAANCKDLCDVVASKASLQELDLSSNKLGNAGIAALCPGLLLPSCKLRTLWLWECDITAEGCKDLCRVLRAKQSLKELSLASNELKDEGARLLCESLLEPGCQLESLWIKTCSLTAASCPYFCSVLTKSRSLLELQMSSNPLGDEGVQELCKALSQPDTVLRELWLGDCDVTNSGCSSLANVLLANRSLRELDLSNNCMGGPGVLQLLESLKQPSCTLQQLVLYDIYWTNEVEEQLRALEEERPSLRIIS
# Assays:
# [1] = target: anole RNase 1 (anole lizard (Anolis carolinensis))
# [2] = target: chicken RNase A-1 (chicken (G. gallus))
# human RNase 1 = target: T1, human RNase 1
# mouse RNase 1 = target: T2, mouse RNase 1
# [3] = target: B1; experiment: fluorescence dissociation-rate assay
# bovine RNase A = target: T3, bovine RNase A
# [4] = target: B2; experiment: fluorescence dissociation-rate assay
molecule,measurement,setting,value
anole ribonuclease inhibitor (natural protein),stoichiometry N,[1],1
chicken ribonuclease inhibitor (natural protein),stoichiometry N,[2],1
B1,stoichiometry N,human RNase 1,1
B2,stoichiometry N,mouse RNase 1,1
"S19C mouse RNase 1, labeled with diethylfluorescein (DEFIA) (enzyme, mouse (M. musculus), UniProt P00683 26-149, looked up, diethylfluorescein (DEFIA) on the introduced cysteine 19) RESAAQKFQRQHMDPDGSCINSPTYCNQMMKRRDMTNGSCKPVNTFVHEPLADVQAVCSQENVTCKNRKSNCYKSSSALHITDCHLKGNSKYPNCDYKTTQYQKHIIVACEGNPYVPVHFDATV",binding result,[3],binds
"bovine ribonuclease inhibitor (natural protein, bovine (B. taurus)) MKLDIQCEQLSDARWTELLPLIQQYEVVRLDDCGLTEVRCKDIGSALQANASLTELSLRTNELGDGGVLLVLQGLQSPTCKIQKLSLQNCCLTEAGCGVLPGVLRSLPTLRELHLSDNPLGDAGLRLLCEGLLDPRCRLEKLQLEYCSLTAASCEPLAAVLRATRDLKELVVSNNDIGEAGVQALCRGLAESACQLETLKLENCGLTAANCKDLCGIVASQASLKDLDLGSNRLGDAGLAELCPGLLSPSSQLRTLWLWECDLTVSGCRELCRVLQAKEALKELSLAGNSLGDEGAQLLCESLLQPGCQLESLWVKSCGFTAACCQHFSSMLTQNKHLLELQLSSNPLGDAGVHVLCQALGQPGTVLRVLWVGDCELTNSSCGGLASLLLASPSLRELDLSNNGLGDPGVLQLLGSLEQPACSLEQLVLYDIYWTEAVDERLRAVEESKPGLRIIS",stoichiometry N,bovine RNase A,1
"A19C bovine RNase 1, labeled with diethylfluorescein (DEFIA) (enzyme, UniProt P61823 27-150, looked up, diethylfluorescein (DEFIA) on the introduced cysteine 19) KETAAAKFERQHMDSSTSCASSSNYCNQMMKSRNLTKDRCKPVNTFVHESLADVQAVCSQKNVACKNGQTNCYQSYSTMSITDCRETGSSKYPNCAYKTTQANKHIIVACEGNPYVPVHFDASV",binding result,[4],binds
same,binding result,[3],binds
"P19C human RNase 1, labeled with diethylfluorescein (DEFIA) (enzyme, UniProt P07998 29-156, looked up, diethylfluorescein (DEFIA) on the introduced cysteine 19) KESRAKKFQRQHMDSDSSCSSSSTYCNQMMRRRNMTQGRCKPVNTFVHEPLVDVQNVCFQEKVTCKNGQGNCYKSNSSMHITDCRLTNGSRYPNCAYRTSPKERHIIVACEGSPYVPVHFDASVEDST",binding result,[4],binds
